For this assay, the target named is T1, human FcγRIIIa type V (allotype V158) extracellular domain with C-terminal His tag (human, UniProt P08637 17-208).
T1 construct: also called FcγRIIIaV
The experiment in a line: SPR (Biacore), antibody captured, FcγR analyte. For orientation: SPR reads the build-up and loss of mass on a sensor chip optically.

T1 sequence (P08637 other isoform, or with tags, fused parts or gaps): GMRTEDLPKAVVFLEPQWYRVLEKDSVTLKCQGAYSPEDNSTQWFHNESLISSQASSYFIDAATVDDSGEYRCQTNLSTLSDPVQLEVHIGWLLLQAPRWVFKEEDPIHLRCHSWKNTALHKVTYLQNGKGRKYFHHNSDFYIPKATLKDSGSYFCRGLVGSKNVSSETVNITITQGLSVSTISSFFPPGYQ

B1: IL6R-BP116/IL6R-L (antibody, human IgG1, kappa, name in EU numbering)
heavy: QVQLQESGPGLVKPSETLSLTCAVSGHSISHDHAWSWVRQPPGEGLEWIGFISYSGITNYNPSLQGRVTISRDNSKNTLYLQMNSLRAEDTAVYYCARSLARTTAMDYWGEGTLVTVSSASTKGPSVFPLAPSSKSTSGGTAALGCLVKDYFPEPVTVSWNSGALTSGVHTFPAVLQSSGLYSLSSVVTVPSSSLGTQTYICNVNHKPSNTKVDKKVEPKSCDKTHTCPPCPAPELLGGDSVFLFPPKPKDTLMISRTPEVTCVVVDVSHEDPEVKFNWYVDGVEVHNAKTKPREEQYNSTYRVVSVLTVLHQDWLNGKEYKCKVSNTALPAPIEKTISKAKGQPREPQVYTLPPSRDELTKNQVSLTCLVKGFYPSDIAVEWESNGQPENNYKTTPPVLDSDGSFFLYSKLTVDKSRWQQGNVFSCSVMHEALHNHYTQESLSLSP
light: not shown
notes: Alterations introduced into IL6R-B3; also called P238D/K326T; copies: 2 + 2
Take B1: the dissociation constant (Kd) stood at 72 µM.

B2: IL6R-BP118/IL6R-L (antibody, human IgG1, kappa, name in EU numbering)
heavy: QVQLQESGPGLVKPSETLSLTCAVSGHSISHDHAWSWVRQPPGEGLEWIGFISYSGITNYNPSLQGRVTISRDNSKNTLYLQMNSLRAEDTAVYYCARSLARTTAMDYWGEGTLVTVSSASTKGPSVFPLAPSSKSTSGGTAALGCLVKDYFPEPVTVSWNSGALTSGVHTFPAVLQSSGLYSLSSVVTVPSSSLGTQTYICNVNHKPSNTKVDKKVEPKSCDKTHTCPPCPAPELLGGDSVFLFPPKPKDTLMISRTPEVTCVVVDVSHEDPEVKFNWYVDGVEVHNAKTKPREEQYNSTYRVVSVLTVLHQDWLNGKEYKCKVSNSALPAPIEKTISKAKGQPREPQVYTLPPSRDELTKNQVSLTCLVKGFYPSDIAVEWESNGQPENNYKTTPPVLDSDGSFFLYSKLTVDKSRWQQGNVFSCSVMHEALHNHYTQESLSLSP
light: not shown
notes: Alterations introduced into IL6R-B3; also called P238D/K326S; copies: 2 + 2
B2: the Kd is 56 µM.

B3: IL6R-BP912/IL6R-L (antibody, human IgG1, kappa, name in EU numbering)
heavy: QVQLQESGPGLVKPSETLSLTCAVSGHSISHDHAWSWVRQPPGEGLEWIGFISYSGITNYNPSLQGRVTISRDNSKNTLYLQMNSLRAEDTAVYYCARSLARTTAMDYWGEGTLVTVSSASTKGPSVFPLAPSSKSTSGGTAALGCLVKDYFPEPVTVSWNSGALTSGVHTFPAVLQSSGLYSLSSVVTVPSSSLGTQTYICNVNHKPSNTKVDKKVEPKSCDKTHTCPPCPAPELLGGDSVFLFPPKPKDTLMISRTPEVTCVVVDVSHEDPEVKFNWYVDGVEVHNAKTKPREEQYNSTYRVVSVLTVLHQDWLNGKEYKCKVSNKALPRPIEKTISKAKGQPREPQVYTLPPSRDELTKNQVSLTCLVKGFYPSDIAVEWESNGQPENNYKTTPPVLDSDGSFFLYSKLTVDKSRWQQGNVFSCSVMHEALHNHYTQESLSLSP
light: not shown
notes: Alterations introduced into IL6R-B3; also called P238D/A330R; copies: 2 + 2
Molecule B3 gave a dissociation constant (Kd) of 78 µM.

B4: IL6R-BP126/IL6R-L (antibody, human IgG1, kappa, name in EU numbering)
heavy: QVQLQESGPGLVKPSETLSLTCAVSGHSISHDHAWSWVRQPPGEGLEWIGFISYSGITNYNPSLQGRVTISRDNSKNTLYLQMNSLRAEDTAVYYCARSLARTTAMDYWGEGTLVTVSSASTKGPSVFPLAPSSKSTSGGTAALGCLVKDYFPEPVTVSWNSGALTSGVHTFPAVLQSSGLYSLSSVVTVPSSSLGTQTYICNVNHKPSNTKVDKKVEPKSCDKTHTCPPCPAPELLGGDSVFLFPPKPKDTLMISRTPEVTCVVVDVSHEDPEVKFNWYVDGVEVHNAKTKPREEQYNSTYRVVSVLTVLHQDWLNGKEYKCKVSNLALPAPIEKTISKAKGQPREPQVYTLPPSRDELTKNQVSLTCLVKGFYPSDIAVEWESNGQPENNYKTTPPVLDSDGSFFLYSKLTVDKSRWQQGNVFSCSVMHEALHNHYTQESLSLSP
light: not shown
notes: Alterations introduced into IL6R-B3; also called P238D/K326L; copies: 2 + 2
Regarding B4, binding was characterised by a dissociation constant (Kd) of 56 µM.

B5: IL6R-BP119/IL6R-L (antibody, human IgG1, kappa, name in EU numbering)
heavy: QVQLQESGPGLVKPSETLSLTCAVSGHSISHDHAWSWVRQPPGEGLEWIGFISYSGITNYNPSLQGRVTISRDNSKNTLYLQMNSLRAEDTAVYYCARSLARTTAMDYWGEGTLVTVSSASTKGPSVFPLAPSSKSTSGGTAALGCLVKDYFPEPVTVSWNSGALTSGVHTFPAVLQSSGLYSLSSVVTVPSSSLGTQTYICNVNHKPSNTKVDKKVEPKSCDKTHTCPPCPAPELLGGDSVFLFPPKPKDTLMISRTPEVTCVVVDVSHEDPEVKFNWYVDGVEVHNAKTKPREEQYNSTYRVVSVLTVLHQDWLNGKEYKCKVSNMALPAPIEKTISKAKGQPREPQVYTLPPSRDELTKNQVSLTCLVKGFYPSDIAVEWESNGQPENNYKTTPPVLDSDGSFFLYSKLTVDKSRWQQGNVFSCSVMHEALHNHYTQESLSLSP
light: not shown
notes: Alterations introduced into IL6R-B3; also called P238D/K326M; copies: 2 + 2
The molecule B5 gave a Kd of 56 µM.

B6: IL6R-BP121/IL6R-L (antibody, human IgG1, kappa, name in EU numbering)
heavy: QVQLQESGPGLVKPSETLSLTCAVSGHSISHDHAWSWVRQPPGEGLEWIGFISYSGITNYNPSLQGRVTISRDNSKNTLYLQMNSLRAEDTAVYYCARSLARTTAMDYWGEGTLVTVSSASTKGPSVFPLAPSSKSTSGGTAALGCLVKDYFPEPVTVSWNSGALTSGVHTFPAVLQSSGLYSLSSVVTVPSSSLGTQTYICNVNHKPSNTKVDKKVEPKSCDKTHTCPPCPAPELLGGDSVFLFPPKPKDTLMISRTPEVTCVVVDVSHEDPEVKFNWYVDGVEVHNAKTKPREEQYNSTYRVVSVLTVLHQDWLNGKEYKCKVSNQALPAPIEKTISKAKGQPREPQVYTLPPSRDELTKNQVSLTCLVKGFYPSDIAVEWESNGQPENNYKTTPPVLDSDGSFFLYSKLTVDKSRWQQGNVFSCSVMHEALHNHYTQESLSLSP
light: not shown
notes: Alterations introduced into IL6R-B3; also called P238D/K326Q; copies: 2 + 2
B6: binding was characterised by a dissociation constant (Kd) of 52 µM.

B7: IL6R-BP120/IL6R-L (antibody, human IgG1, kappa, name in EU numbering)
heavy: QVQLQESGPGLVKPSETLSLTCAVSGHSISHDHAWSWVRQPPGEGLEWIGFISYSGITNYNPSLQGRVTISRDNSKNTLYLQMNSLRAEDTAVYYCARSLARTTAMDYWGEGTLVTVSSASTKGPSVFPLAPSSKSTSGGTAALGCLVKDYFPEPVTVSWNSGALTSGVHTFPAVLQSSGLYSLSSVVTVPSSSLGTQTYICNVNHKPSNTKVDKKVEPKSCDKTHTCPPCPAPELLGGDSVFLFPPKPKDTLMISRTPEVTCVVVDVSHEDPEVKFNWYVDGVEVHNAKTKPREEQYNSTYRVVSVLTVLHQDWLNGKEYKCKVSNEALPAPIEKTISKAKGQPREPQVYTLPPSRDELTKNQVSLTCLVKGFYPSDIAVEWESNGQPENNYKTTPPVLDSDGSFFLYSKLTVDKSRWQQGNVFSCSVMHEALHNHYTQESLSLSP
light: not shown
notes: Alterations introduced into IL6R-B3; also called P238D/K326E; copies: 2 + 2
As to B7, binding was characterised by a dissociation constant (Kd) of 79 µM.

B8: IL6R-BP117/IL6R-L (antibody, human IgG1, kappa, name in EU numbering)
heavy: QVQLQESGPGLVKPSETLSLTCAVSGHSISHDHAWSWVRQPPGEGLEWIGFISYSGITNYNPSLQGRVTISRDNSKNTLYLQMNSLRAEDTAVYYCARSLARTTAMDYWGEGTLVTVSSASTKGPSVFPLAPSSKSTSGGTAALGCLVKDYFPEPVTVSWNSGALTSGVHTFPAVLQSSGLYSLSSVVTVPSSSLGTQTYICNVNHKPSNTKVDKKVEPKSCDKTHTCPPCPAPELLGGDSVFLFPPKPKDTLMISRTPEVTCVVVDVSHEDPEVKFNWYVDGVEVHNAKTKPREEQYNSTYRVVSVLTVLHQDWLNGKEYKCKVSNDALPAPIEKTISKAKGQPREPQVYTLPPSRDELTKNQVSLTCLVKGFYPSDIAVEWESNGQPENNYKTTPPVLDSDGSFFLYSKLTVDKSRWQQGNVFSCSVMHEALHNHYTQESLSLSP
light: not shown
notes: Alterations introduced into IL6R-B3; also called P238D/K326D; copies: 2 + 2
Take B8: binding was put at a Kd of 67 µM.

B9: IL6R-BP142/IL6R-L (antibody, human IgG1, kappa, name in EU numbering)
heavy: QVQLQESGPGLVKPSETLSLTCAVSGHSISHDHAWSWVRQPPGEGLEWIGFISYSGITNYNPSLQGRVTISRDNSKNTLYLQMNSLRAEDTAVYYCARSLARTTAMDYWGEGTLVTVSSASTKGPSVFPLAPSSKSTSGGTAALGCLVKDYFPEPVTVSWNSGALTSGVHTFPAVLQSSGLYSLSSVVTVPSSSLGTQTYICNVNHKPSNTKVDKKVEPKSCDKTHTCPPCPAPELLGGDSVFLFPPKPKDTLMISRTPEVTCVVVDVSHEDPEVKFNWYVDGVEVHNAKTKPREEQYNSTYRVVSVLTVLHQDWLNGKEYKCKVSNNALPAPIEKTISKAKGQPREPQVYTLPPSRDELTKNQVSLTCLVKGFYPSDIAVEWESNGQPENNYKTTPPVLDSDGSFFLYSKLTVDKSRWQQGNVFSCSVMHEALHNHYTQESLSLSP
light: not shown
notes: Alterations introduced into IL6R-B3; also called P238D/K326N; copies: 2 + 2
The molecule B9 showed a Kd of 110 µM.

B10: IL6R-BP136/IL6R-L (antibody, human IgG1, kappa, name in EU numbering)
heavy: QVQLQESGPGLVKPSETLSLTCAVSGHSISHDHAWSWVRQPPGEGLEWIGFISYSGITNYNPSLQGRVTISRDNSKNTLYLQMNSLRAEDTAVYYCARSLARTTAMDYWGEGTLVTVSSASTKGPSVFPLAPSSKSTSGGTAALGCLVKDYFPEPVTVSWNSGALTSGVHTFPAVLQSSGLYSLSSVVTVPSSSLGTQTYICNVNHKPSNTKVDKKVEPKSCDKTHTCPPCPAPELLGGDSVFLFPPKPKDTLMISRTPEVTCVVVDVSHEDPEVKFNWYVDGVEVHNAKTKPREEQYNSTYRVVSVLTVLHQDWLNGKEYKCKVSNAALPAPIEKTISKAKGQPREPQVYTLPPSRDELTKNQVSLTCLVKGFYPSDIAVEWESNGQPENNYKTTPPVLDSDGSFFLYSKLTVDKSRWQQGNVFSCSVMHEALHNHYTQESLSLSP
light: not shown
notes: Alterations introduced into IL6R-B3; also called P238D/K326A; copies: 2 + 2
In turn, B10 returned a Kd of 69 µM.

B11: IL6R-BP911/IL6R-L (antibody, human IgG1, kappa, name in EU numbering)
heavy: QVQLQESGPGLVKPSETLSLTCAVSGHSISHDHAWSWVRQPPGEGLEWIGFISYSGITNYNPSLQGRVTISRDNSKNTLYLQMNSLRAEDTAVYYCARSLARTTAMDYWGEGTLVTVSSASTKGPSVFPLAPSSKSTSGGTAALGCLVKDYFPEPVTVSWNSGALTSGVHTFPAVLQSSGLYSLSSVVTVPSSSLGTQTYICNVNHKPSNTKVDKKVEPKSCDKTHTCPPCPAPELLGGDSVFLFPPKPKDTLMISRTPEVTCVVVDVSHEDPEVKFNWYVDGVEVHNAKTKPREEQYNSTYRVVSVLTVLHQDWLNGKEYKCKVSNKALPKPIEKTISKAKGQPREPQVYTLPPSRDELTKNQVSLTCLVKGFYPSDIAVEWESNGQPENNYKTTPPVLDSDGSFFLYSKLTVDKSRWQQGNVFSCSVMHEALHNHYTQESLSLSP
light: not shown
notes: Alterations introduced into IL6R-B3; also called P238D/A330K; copies: 2 + 2
Take B11: binding was characterised by a dissociation constant (Kd) of 58 µM.

Usually Kd stands for a measure of binding affinity in units of concentration.

The values above are taken from patent US20240279325A1 (Chugai, published 2024).
